Reference: paper doi:10.1101/2022.04.14.488403 (bioRxiv, 2022)
One block for each molecule: values may come before it.

Legend:
K5:I-E^k = assay: biomembrane force probe
mouse CD3γε ECD = mouse CD3γε ECD (Mus musculus (Mouse)., UniProt P11942;P22646, biotin (BirA) on the C-terminal biotinylation sequence); assay: micropipette adhesion frequency
human CD3γε ECD = human CD3γε ECD (human, UniProt P09693;P07766, biotin (BirA) on the C-terminal biotinylation sequence); assay: biomembrane force probe
Sequence of human CD3γε ECD (P09693 23-116, one chain of several): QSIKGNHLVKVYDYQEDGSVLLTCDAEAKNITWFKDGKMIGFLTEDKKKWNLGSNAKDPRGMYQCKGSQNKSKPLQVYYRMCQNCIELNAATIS

Sequence of mouse CD3γε ECD (P11942 23-116, chain 1 of 2): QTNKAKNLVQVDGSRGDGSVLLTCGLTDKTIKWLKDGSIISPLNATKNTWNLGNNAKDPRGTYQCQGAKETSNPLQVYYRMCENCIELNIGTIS
Sequence of mouse CD3γε ECD (P22646 23-108, chain 2 of 2): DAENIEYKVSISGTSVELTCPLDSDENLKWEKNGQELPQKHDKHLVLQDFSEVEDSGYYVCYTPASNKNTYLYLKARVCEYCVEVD

- peak bond lifetime (at 15 pN) (K5:I-E^k): 1.6 s
Molecule: 2B4 TCR, wild type, fully assembled on the surface of T hybridoma cells (from UniProt P01849 1-136)

- binding result (mouse CD3γε ECD): binds
B1: 2C11 full-length mAb (anti-CD3ε, clone 145-2C11) (antibody, V domains shown)
VH: EVQLVESGGGLVQPGKSLKLSCEASGFTFSGYGMHWVRQAPGRGLESVAYITSSSINIKYADAVKGRFTVSRDNAKNLLFLQMNILKSEDTAMYYCARFDWDKNYWGQGTMVTVSS
VL: DIQMTQSPSSLPASLGDRVTINCQASQDISNYLNWYQQKPGKAPKLLIYYTNKLADGVPSRFSGSGSGRDSSFTISSLESEDIGSYYCQQYYNYPWTFGPGTKLEIK

- binding result (human CD3γε ECD): binds
B2: human CD3δε ECD (complex)
chain 1: FKIPIEELEDRVFVNCNTSITWVEGTVGTLLSDITRLDLGKRILDPRGIYRCNGTDIYKDKESTVQVHYRMCQSCVELDPATVA
chain 2: DGNEEMGGITQTPYKVSISGTTVILTCPQYPGSEILWQHNDKNIGGDEDDKNIGSDEDHLSLKEFSELEQSGYYVCYPRGSKPEDANFYLYLRARVCENCMEMD
modifications: biotin (BirA) on the C-terminal biotinylation sequence
